Measurements reported in patent publication CN113999301A (JIANGSU XINTRUM PHARMACEUTICALS CO LTD, dated 2022).

Target: 新冠假病毒Delta突变株的S蛋白 (B.1.617.2(Delta)) (SARS-CoV-2, UniProt P0DTC2 14-1273)
Experiment: cell-based or functional assay

B1: 抗SARS-CoV-2(COVID-19)S蛋白RBD单克隆抗体B15-5-B3 (antibody, V domains shown)
VH: EVKFEESGGGLVQPGGSMKLSCAASGFTFSDAWMDWVRQSPEKGLEWVAEIRNKANNHATYYAESVKGRFTISRDDSKSSVYLQMNSLRAEDTGIYYCTPYDYAYPWFWGQGTLVTVSA
VL: EIVLTQSPTTMAASPGEKITITCSASSSISSHYLHWYQQKPGFSPKLLIYRSYSLASGFPGRFSGSGSGTSFSLSIGTMEAEDVATYYCQQGSSRITPFGGGTKLEIK
B1 was tested, and the “假病毒中和效应 EC50 (luciferase, HEK293-ACE2 cells)” value was 0.27 mg/L.
